Experimental findings from IntAct's records for PubMed 23066109 are described below.

B1: Tudor domain-containing protein 3 (Homo sapiens), Q9H7E2 (parent)
chain: MLRLQMTDGHISCTAVEFSYMSKISLNTPPGTKVKLSGIVDIKNGFLLLNDSNTTVLGGEVEHLIEKWELQRSLSKHNRSNIGTEGGPPPFVPFGQKCVSHVQVDSRELDRRKTLQVTMPVKPTNDNDEFEKQRTAAIAEVAKSKETKTFGGGGGGARSNLNMNAAGNRNREVLQKEKSTKSEGKHEGVYRELVDEKALKHITEMGFSKEASRQALMDNGNNLEAALNVLLTSNKQKPVMGPPLRGRGKGRGRIRSEDEEDLGNARPSAPSTLFDFLESKMGTLNVEEPKSQPQQLHQGQYRSSNTEQNGVKDNNHLRHPPRNDTRQPRNEKPPRFQRDSQNSKSVLEGSGLPRNRGSERPSTSSVSEVWAEDRIKCDRPYSRYDRTKDTSYPLGSQHSDGAFKKRDNSMQSRSGKGPSFAEAKENPLPQGSVDYNNQKRGKRESQTSIPDYFYDRKSQTINNEAFSGIKIEKHFNVNTDYQNPVRSNSFIGVPNGEVEMPLKGRRIGPIKPAGPVTAVPCDDKIFYNSGPKRRSGPIKPEKILESSIPMEYAKMWKPGDECFALYWEDNKFYRAEVEALHSSGMTAVVKFIDYGNYEEVLLSNIKPIQTEAWEEEGTYDQTLEFRRGGDGQPRRSTRPTQQFYQPPRARN

One experiment covers variants of B1. The note with it: with rpb1_human POLR2A.
On to D569A, for which the “effect of a mutation on the interaction” value is given as “disrupting interaction”.
Same read-out and setting: the entry for W567S is “decreasing interaction”; for Y566F it is “disrupting interaction”; for Y566W it is “increasing interaction”.

The next experiment covers variants of B1. The note with it: with rpb1_human POLR2A. This is another data set of the same source.
With Y566F, the “effect of a mutation on the interaction” value was “with no effect”.
